Article PMC12081870 (Communications Biology, 2025)

Test system: Las17 PPR-N fragment (residues 300-422)
Test: Biolayer Interferometry (BLI), Sla1 SH3 domains to Las17 PPR-N
Format: binding, Saccharomyces cerevisiae
Conditions: for fold increase in affinity over single SH3 domain: BLI, tandem vs single SH3 domain
Excerpt: To investigate binding characteristics of the SH3 domains further, Sla1 SH3 protein domains were purified. Three Sla1 SH3 single domains, tandem domains Sla1 SH3#1&2, Sla1 SH3#1&2 W108A (in which the W108A mutation prevents proline motif binding by SH3#2 but not SH3#1) and a fragment with all three SH3 domains were expressed recombinantly and purified. […] This outcome is in line with original research of Rodal and colleagues and with more recent studies of avidity developed by Williamson, which highlighted the importance of tandem binding SH3 domains[13],[27].
Biolayer Interferometry (BLI) assays were performed using an OctetⓇ R2 (Sartorius). Protein samples were placed into the wells of a polystyrene plate (ProxiPlateTM, Perkin Elmer) and binding measured either with Octet NTA Biosensors or Octet GST Biosensors. Screening assays were performed to determine the optimum loading concentration and time for each binding pair to ensure that the probe was not saturated. All experiments were repeated three times, each time with newly prepared protein. Analysis and visualisation were performed using GraphPad Prism 10.0.2.

B1: Sla1 SH3#1-2: SH3#1-2 (aa 5-131), tandem domains; sequence in b253 (protein)
chain: LGIYRAVYAYEPQTPEELAIQEDDLLYLLQKSDIDDWWTVKKRVIGSDSEEPVGLVPSTYIEEAPVLKKVRAIYDYEQVQNADEELTFHENDVFDVFDDKDADWLLVKSTVSNEFGFIPGNYVEPEN
modifications: 15N-labelled (NMR only); left off: GST, end not stated, cleaved
For B1, which “fold increase in affinity over single SH3 domain” value is on record?
The value was about 100 fold.

What about the “fold increase in affinity over single SH3 domain” value (listed as tandem Sla1 SH3 domains) of the same molecule?
The value was over 100 fold.

And the Kd (Biolayer Interferometry, Octet R2, Las17 (aa 300-422), three repeats with newly prepared protein, read-out: binding affinity (Kd))?
Its Kd is 87 nM.
